The record followed here is patent publication US20240343789A1 (published 2024).

Assay in all cases: ECL ELISA titration
Assay [1] deals with T1, IGFR-L1 protein (Endosome/lysosome-associated apoptosis and autophagy regulator 1, ELAPOR1) (UniProt Q6UXG2 42-1013).
T1 chain: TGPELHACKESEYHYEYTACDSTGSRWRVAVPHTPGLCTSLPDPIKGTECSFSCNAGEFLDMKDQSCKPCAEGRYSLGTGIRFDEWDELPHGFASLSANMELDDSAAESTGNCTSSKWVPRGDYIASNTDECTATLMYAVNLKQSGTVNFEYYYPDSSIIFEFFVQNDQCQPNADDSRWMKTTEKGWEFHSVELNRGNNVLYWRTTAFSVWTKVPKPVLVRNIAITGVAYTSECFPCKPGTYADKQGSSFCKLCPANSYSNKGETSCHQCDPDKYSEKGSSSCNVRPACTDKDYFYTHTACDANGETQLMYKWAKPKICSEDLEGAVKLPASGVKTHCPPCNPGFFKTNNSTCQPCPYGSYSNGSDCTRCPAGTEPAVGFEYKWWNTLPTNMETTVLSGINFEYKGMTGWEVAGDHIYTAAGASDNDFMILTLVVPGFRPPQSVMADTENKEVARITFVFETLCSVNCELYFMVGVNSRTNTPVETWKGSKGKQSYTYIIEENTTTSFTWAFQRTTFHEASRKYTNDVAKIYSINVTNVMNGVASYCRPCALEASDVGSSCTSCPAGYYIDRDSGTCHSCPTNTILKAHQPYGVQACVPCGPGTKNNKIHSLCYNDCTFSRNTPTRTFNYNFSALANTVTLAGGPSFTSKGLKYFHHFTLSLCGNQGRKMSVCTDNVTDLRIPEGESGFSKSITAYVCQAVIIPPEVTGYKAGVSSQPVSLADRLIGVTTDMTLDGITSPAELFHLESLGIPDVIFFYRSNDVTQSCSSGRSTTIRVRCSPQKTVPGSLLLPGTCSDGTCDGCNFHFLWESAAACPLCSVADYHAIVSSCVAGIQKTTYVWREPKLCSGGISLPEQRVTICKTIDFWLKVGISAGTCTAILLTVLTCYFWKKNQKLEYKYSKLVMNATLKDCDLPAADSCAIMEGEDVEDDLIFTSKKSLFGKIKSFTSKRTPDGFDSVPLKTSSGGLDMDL

In assay [2] the target is T1, IGFR-L1 protein ….
In assay [3] the target is T1, IGFR-L1 protein ….
The target of assay [4] is T1, IGFR-L1 protein ….
The target of assay [5] is T1, IGFR-L1 protein ….
Assay [6] concerns the target T1, IGFR-L1 protein ….

Like-named read-outs stand apart in the source and are kept apart here.

B1: AB-12 (antibody, V domains shown)
VH: EVKLLESGGGLVQPGGSMRLSCAASGFTFTDFYMNWIRQPAGKAPEWLGFIRNKANGYTTEYTPSVKGRFTISRDDTQNMLYLQMNTLRAEDTATYYCARHYYDGSYYYWYFDFWGPGTMVTVSS
VL: DVVLTQTPVAQPVTLGDQVSISCRSSQSLVKSNGNTYLEWFLQKPGQSPQLLIYKVSNRFSGVPDRFIGSGSGSDFTLKISRVEPEDLGVYYCFQAAHDPRTFGGGTKLELKR
In the case of B1, in assay [1], the Kd is 2.79 nM.

B2: AB-1 (antibody, V domains shown)
VH: EIQLQESGPGLVKPSQSLSLTCSVTDYTITSGFGWSWIRKFPGNKLEWMGYISYSGSTNYNPSLKSRLSLTRDTTKNQFFLQLISVTPEDTATYYCARSPLYGSNRYVVDAWGQGASVTVSS
VL: DVQMTQSPSILTASPGESVSINCKASKSISNYLAWYQQKPGKSINLLIYSGSTLQSGTPSRFSGSGSGTDFTLTIRNLDPEDFGRYYCQQHNENPYTFGPGTRLELKR
Regarding B2, in assay [2], the Kd was found to be 2.8 nM.

B3: AB-9 (antibody, V domains shown)
VH: EVQLVESGGGLVQPTGSVKLSCAASGFIFTNYGMAWVRQAPKKGLEWVAYISYDGGSTYFRDSVRGRFTISRDNAKSTLYLHMDSLRSEDTATYYCTTPRLDTWGQGVMVTVSS
VL: DIQMTQSPSSLSASLGDRVTITCRPSQDIGNHLSWFQQKPGKSPRLMTYGATILEDGVPSRFSGSRSRSDYSLTISSLESEDTAIYYCLQYDKYPRTFGGGTKVELKR
In assay [3], B3 showed a Kd of 2.95 nM.

B4: AB-7 (antibody, V domains shown)
VH: QVKLLQSGAALVKPGDSVKMSCKASGYSFTDYSIHWVKQSHGKSLEWIGYINPYSGGTTYNEKFKRKATLTVDKSSSTAYMEFSRLTSEDSAIYYCAREGMGITLYVMDAWGQGASVTVSS
VL: DIVLTQSPALAVSLGQRATVSCKASQTVTISRYHLLHWYQQKPGQQPTLLIYRASNLASGIPARFSGSGSGTDFTLTINPVQADDLASYYCQQSWGSPWTFGGGTKLELKR
In assay [4], B4 displayed a Kd of 1.44 nM.

B5: AB-3 (antibody, V domains shown)
VH: EVQLLESGGGLVQPGGSLSLSCAASGFTFTDFYMNWIRQPAGKAPEWLAFARNKANGYTTDYNPSVKGRFAISRDNTQNMFYLHMNTLRPEDTATYYCARGRPSDYWGQGVMVTVSS
VL: DIVMTQSPSSLAVSTGETVTMDCKSSQNLFYSGNQRNYLAWYQQKPGQSPTLLIYWASTRRSGVPDRFIGSGSGTDFTLTISSVQAEDLALYYCQQYDDPPYTFGAGTKLELKR
Take B5: binding in assay [5] was characterised by a dissociation constant (Kd) of 2.75 nM.

B6: AB-6 (antibody, V domains shown)
VH: EVQLVESDGGLVQPGRSLKLSCAASGFSFSDYYMAWLRQAPTKGLEWVATISHDGTGTYFRDSVKGRFTISRDNVKSTLYLQLDSLRSEDTATYYCARHKDGGYKDYWGQGVMVTVSS
VL: DIKMTQSPSPLSASLGERVTISCRASDNIDNYLSWYQKKEDGSVRLLIYHTSRLQPGAPSRFSGSGSGKDYSLTISGLESEDIATYYCQQTYTPYTFGAGTKLELRR
Molecule B6 came in with a Kd in assay [6] of 5.27 nM.

B7: AB-4 (antibody, V domains shown)
VH: EVQLVESGGGFVRPGKSLKLSCSASGFTFNTYGMHWIRQAPGKGLDWVSYISSSSATAYADAVKGRFTISRDNAKNTLYLQLNSLRSEDTAIYHCAREATYYGYPRYYFDYWGQGVMVTVSS
VL: DIQMTQSPSSMSVSLGDRVTFTCRASQDIGNYLSWYQQKPEKSPRLMIYTATDLEDGVPSRFSGSRSGSDYSLTINSLESEDRGIYFCLQHKQYPYTFGSGTKLELKR
As to B7, in assay [5], the Kd came to 2.76 nM.

B8: AB-2 (antibody, V domains shown)
VH: EVQLVESDGGFVQPGRSLTLSCAASGFTFSDYYMSWVRQAPTKGLEWVATIGYDVSYTNYRDSVKGRFTISRDNAKSILSLQMDSLRSEDTATYYCARHPSYFDYWGQGVMVTVSS
VL: DIVMTQSPSSLAVSAGETVTINCKSSQSLFYSENQKNYLAWLQQKPGQSPKLLITWASTRQSGVPDRFIGSGSGTDFTLTISSVQAEDLAIYHCQQYYDTPRTFGGGTQLELKR
Take B8: the Kd in assay [2] amounted to 2.22 nM.

B9: AB-11 (antibody, V domains shown)
VH: EVQLVESDGGFVQPGRSLKLSCAASGFTFSDYYMSWVRQAPTKGLEWVATIGYDGTYTNYRDSVKGRFTISRDNARSILYLQMDSLRSEDTATYYCARHPSYFDHWGQGVMVTVSS
VL: DIVMTQSPSSLAVSAGETVTINCKSSQSLLYSENQKNYLAWFQQRPGQSPKLLINWASTRQSGVPDRFIGSGSGTDFTLTISSVQAEDLATYHCQQYYDTPRTFGGGSKLELKR
Turning to B9, in assay [1], binding was characterised by a dissociation constant (Kd) of 2.81 nM.

B10: AB-5 (antibody, V domains shown)
VH: EVQLVESGGGLVQPGRSLKLSCAAPGFTFSASDMAWVRQAPTKGLEWVASISPSGDSTYYRDSILGRFTVSRDNAKSSLYLQMDSLRSEDTATYYCARHLGLGPFDHWGQGVMVTVSS
VL: DIQMTQSPSLLSASVGDRVTLSCKAGRDINNYLAWYQQKLGEAPKLLIYNANFLQTGIPSRFSGSGSGTDYTLTISSLQPEDVATYFCQQFNTWTGTFGGGTKLELKR
In assay [6], B10 showed a Kd of 4.78 nM.

B11: AB-10 (antibody, V domains shown)
VH: GVQLVESGGGLVQSGRSIKVSCEASGFTFSNFYMAWVRQAPTKGLEWVASISSGGGNTHYRDSVRGRFTISRNNAKSTLYLQMDSLNSEDTATYYCARDPGGGSPYWYLDFWGPGTMVTVSS
VL: DIVLTQSPALAVSLGQRATISCRANQNVDFYDNTYLHWYQQKPGQQPKLLIYLASNLASGIPARFSGGGSGTDFTLTIDPVEADDTATYYCQQSRNLPNTFGAGTKLELKR
For the molecule B11, the Kd in assay [3] was found to be 1.01 nM.

B12: AB-8 (antibody, V domains shown)
VH: QVQLQQSGAELAKPGSSVKISCKASGYTFTSYFISWIKQTTGQDLEYIGYINTGSGGTNYNEKFKGKATLTVDRSSSTAFMQLSSLTPDDSAVYYCARELRRVRGWFAYWGQGTLVTVSS
VL: DTQMTQSPASLFASLGETVTIQCQASEDISSGLAWYQQKPGKSPHLLIYGANSLQDGVPSRFSGSGSGTQYSLKITNMQADDEGVYFCQQGLKYPFTFGSGTKLEIKR
With B12, in assay [4], the Kd was found to be 2.74 nM.
